Square brackets hold non-standard residues; d marks the D form. Ends that are not written are not given here. Tyr(3-NO2) = N[C@@H](Cc1ccc(O)c([N+](=O)[O-])c1)C(=O)O; Nle = CCCC[C@H](N)C(=O)O; 2Abz = Nc1ccccc1C(=O)O
Columns and labels:
Assay type in all cases: biochemical
uPA = uPA (Homo sapiens, UniProt P00749); test: FRET peptide cleavage efficiency with uPA; settings: 200 uM linker, 1 ug/ml protease, 37° C., buffer A pH 8.5
MMP-2 = target: T1, MMP-2 (Homo sapiens, UniProt P08253); test: FRET peptide cleavage efficiency with MMP-2; settings: 200 uM linker, 1 ug/ml protease, 37° C., buffer C pH 7.5
T1 construct: purchased SIGMA PF023
T1 sequence (P08253 110-660): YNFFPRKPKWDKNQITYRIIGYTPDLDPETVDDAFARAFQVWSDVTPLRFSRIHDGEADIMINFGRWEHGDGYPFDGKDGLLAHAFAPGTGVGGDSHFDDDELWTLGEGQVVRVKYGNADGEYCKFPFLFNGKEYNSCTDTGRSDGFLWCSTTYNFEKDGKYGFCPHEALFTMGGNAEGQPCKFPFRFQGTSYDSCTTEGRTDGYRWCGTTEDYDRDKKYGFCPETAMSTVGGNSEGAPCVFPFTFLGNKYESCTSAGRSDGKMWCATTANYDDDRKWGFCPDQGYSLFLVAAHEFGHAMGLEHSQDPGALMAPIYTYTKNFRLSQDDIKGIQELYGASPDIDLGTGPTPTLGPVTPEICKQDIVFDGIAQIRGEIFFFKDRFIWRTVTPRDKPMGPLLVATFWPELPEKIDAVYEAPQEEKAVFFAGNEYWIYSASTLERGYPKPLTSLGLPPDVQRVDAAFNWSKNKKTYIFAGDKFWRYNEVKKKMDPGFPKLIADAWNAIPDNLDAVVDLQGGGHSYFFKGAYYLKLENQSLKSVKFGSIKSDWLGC

matriptase = target: T2, matriptase (Homo sapiens, UniProt Q9Y5Y6); test: FRET peptide cleavage efficiency with matriptase; settings: 200 uM linker, 1 ug/ml protease, 37° C., buffer B pH 9.0
T2 construct: purchased R&D Systems 3946-SEB
T2 sequence (Q9Y5Y6 615-855 limits assumed): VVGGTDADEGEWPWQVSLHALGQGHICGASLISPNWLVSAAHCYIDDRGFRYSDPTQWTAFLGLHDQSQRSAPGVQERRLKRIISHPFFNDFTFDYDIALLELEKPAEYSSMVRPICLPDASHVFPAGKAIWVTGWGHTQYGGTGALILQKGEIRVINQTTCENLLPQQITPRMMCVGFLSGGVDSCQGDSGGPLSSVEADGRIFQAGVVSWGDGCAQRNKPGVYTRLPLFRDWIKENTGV

Kallikrein-3 = Kallikrein-3 (Homo sapiens, UniProt P07288); test: FRET peptide cleavage efficiency with Kallikrein-3; settings: peptide 200 uM, Kallikrein-3 2 μg/ml, 37° C., pH 8
Kallikrein-3, sequence (P07288 25-261, species assumed): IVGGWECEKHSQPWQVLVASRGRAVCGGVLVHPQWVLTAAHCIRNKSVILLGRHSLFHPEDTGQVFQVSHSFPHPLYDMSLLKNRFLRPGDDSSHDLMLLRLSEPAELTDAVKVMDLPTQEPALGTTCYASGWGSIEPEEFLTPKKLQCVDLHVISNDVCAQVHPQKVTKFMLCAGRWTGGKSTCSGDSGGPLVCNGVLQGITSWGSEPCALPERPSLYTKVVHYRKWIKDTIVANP

Substance | % cleavage uPA t = 15 min (uPA) [%] | % cleavage uPA t = 60 min (uPA) [%] | % cleavage uPA t = 120 min (uPA) [%] | % cleavage MMP-2 t = 15 min (MMP-2) [%] | % cleavage MMP-2 t = 60 min (MMP-2) [%] | % cleavage MMP-2 t = 120 min (MMP-2) [%] | % cleavage Matriptase t = 15 min (matriptase) [%] | % cleavage Matriptase t = 60 min (matriptase) [%] | % cleavage Matriptase t = 120 min (matriptase) [%] | Kallikrein-3 t = 1 h % cleavage (Kallikrein-3) [%] | Kallikrein-3 t = 3 h % cleavage (Kallikrein-3) [%] | Kallikrein-3 t = 6 h % cleavage (Kallikrein-3) [%] | Kallikrein-3 t = 8 h % cleavage (Kallikrein-3) [%]
GSSVYSGR ([2Abz]GSSVYSGR[Tyr(3-NO2)]-NH2) [LNK080] | 4 | 17 | 28 | 1 | 3 | 5 | 2 | 6 | 10 | 16 | 41 | 68 | 79
HSSKLQL ([2Abz]HSSKLQL[Tyr(3-NO2)]-NH2) [LNK078] | 0 | 0 | 0 | 3 | 6 | 8 | 0 | 0 | 0 | 10 | 34 | 64 | 79
ISQYSSAT ([2Abz]ISQYSSAT[Tyr(3-NO2)]-NH2) [LNK070] | 0 | 0 | 0 | 0 | 0 | 0 | 0 | 0 | 0 | 0 | 0 | 0 | 0
KSKQHSL ([2Abz]KSKQHSL[Tyr(3-NO2)]-NH2) [LNK077] | 0 | 0 | 0 | 3 | 4 | 6 | 0 | 0 | 0 | 9 | 30 | 56 | 69
RRLHYSL ([2Abz]RRLHYSL[Tyr(3-NO2)]-NH2) [LNK073] | 0 | 0 | 0 | 1 | 4 | 6 | 1 | 3 | 5 | 20 | 51 | 79 | 91
RRLNYSL ([2Abz]RRLNYSL[Tyr(3-NO2)]-NH2) [LNK074] | 0 | 0 | 0 | 1 | 5 | 9 | 2 | 6 | 10 | 23 | 59 | 87 | 96
SSQYSSPG ([2Abz]SSQYSSPG[Tyr(3-NO2)]-NH2) [LNK069] | 0 | 0 | 0 | 1 | 6 | 13 | 0 | 0 | 0 | 6 | 16 | 31 | 40

Now from value to substance:

% cleavage uPA t = 15 min (uPA) [%] | % cleavage uPA t = 60 min (uPA) [%] | % cleavage uPA t = 120 min (uPA) [%] | % cleavage MMP-2 t = 15 min (MMP-2) [%] | % cleavage MMP-2 t = 60 min (MMP-2) [%] | % cleavage MMP-2 t = 120 min (MMP-2) [%] | % cleavage Matriptase t = 15 min (matriptase) [%] | % cleavage Matriptase t = 60 min (matriptase) [%] | % cleavage Matriptase t = 120 min (matriptase) [%] | Kallikrein-3 t = 1 h % cleavage (Kallikrein-3) [%] | Kallikrein-3 t = 3 h % cleavage (Kallikrein-3) [%] | Kallikrein-3 t = 6 h % cleavage (Kallikrein-3) [%] | Kallikrein-3 t = 8 h % cleavage (Kallikrein-3) [%] | Substance
0 | 0 | 0 | 10 | 42 | 70 | 0 | 0 | 0 | 34 | 75 | 99 | 100 | GSSYYSGA ([2Abz]GSSYYSGA[Tyr(3-NO2)]-NH2) [LNK079]
0 | 0 | 0 | 1 | 13 | 28 | 0 | 0 | 0 | 23 | 55 | 83 | 94 | KLYSSKQ ([2Abz]KLYSSKQ[Tyr(3-NO2)]-NH2) [LNK071]
0 | 0 | 0 | 19 | 69 | 92 | 0 | 0 | 0 | 0 | 0 | 0 | 0 | RSSYYSL ([2Abz]RSSYYSL[Tyr(3-NO2)]-NH2) [LNK076]
0 | 0 | 0 | 3 | 11 | 19 | 0 | 0 | 0 | 27 | 62 | 87 | 94 | SS-Nle-YSSAG ([2Abz]SS[Nle]YSSAG[Tyr(3-NO2)]-NH2) [LNK081]

Reference: patent publication US20240400614A1, “CLEAVABLE PEPTIDES AND METHODS OF USE THEREOF” (Bright Peak Therapeutics AG, priority 2023, published 2024)
